From patent US20040043420A1, “Method of identifying conformation-sensitive binding peptides and uses thereof” (priority 2003, published 2004)

T1: Gal4 transcriptional activation domain (AD) fused in frame with AR (yeast, UniProt P10275 1-920, limits assumed)
T1 sequence (looked up): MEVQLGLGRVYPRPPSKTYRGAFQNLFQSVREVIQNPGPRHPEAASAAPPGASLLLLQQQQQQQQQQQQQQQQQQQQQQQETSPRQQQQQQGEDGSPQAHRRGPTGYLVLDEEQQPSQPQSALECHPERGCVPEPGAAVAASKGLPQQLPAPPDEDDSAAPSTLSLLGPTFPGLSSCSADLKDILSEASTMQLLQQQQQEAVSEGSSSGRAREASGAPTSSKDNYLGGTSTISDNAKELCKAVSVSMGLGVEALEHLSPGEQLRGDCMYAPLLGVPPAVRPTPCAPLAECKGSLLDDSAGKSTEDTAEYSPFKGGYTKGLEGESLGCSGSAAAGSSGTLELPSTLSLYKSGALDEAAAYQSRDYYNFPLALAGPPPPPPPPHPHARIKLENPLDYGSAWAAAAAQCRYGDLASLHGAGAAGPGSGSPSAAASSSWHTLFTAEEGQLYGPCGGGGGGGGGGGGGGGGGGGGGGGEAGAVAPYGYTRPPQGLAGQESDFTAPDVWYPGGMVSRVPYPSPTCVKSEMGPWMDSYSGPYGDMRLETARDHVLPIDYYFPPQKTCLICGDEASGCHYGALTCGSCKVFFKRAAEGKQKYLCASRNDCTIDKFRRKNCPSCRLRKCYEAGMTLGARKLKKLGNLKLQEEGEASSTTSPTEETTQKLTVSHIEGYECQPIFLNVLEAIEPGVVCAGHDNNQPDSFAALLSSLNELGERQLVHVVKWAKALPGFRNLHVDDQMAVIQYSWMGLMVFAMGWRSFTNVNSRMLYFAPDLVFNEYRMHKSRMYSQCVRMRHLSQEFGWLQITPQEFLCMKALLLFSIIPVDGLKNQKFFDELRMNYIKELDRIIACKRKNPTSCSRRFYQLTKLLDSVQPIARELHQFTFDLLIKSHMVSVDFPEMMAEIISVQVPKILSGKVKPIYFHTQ

T2: ER α (UniProt P03372 1-595, limits assumed)
T2 construct: also called estrogen receptor α; ERα-ERE
T2 sequence (looked up): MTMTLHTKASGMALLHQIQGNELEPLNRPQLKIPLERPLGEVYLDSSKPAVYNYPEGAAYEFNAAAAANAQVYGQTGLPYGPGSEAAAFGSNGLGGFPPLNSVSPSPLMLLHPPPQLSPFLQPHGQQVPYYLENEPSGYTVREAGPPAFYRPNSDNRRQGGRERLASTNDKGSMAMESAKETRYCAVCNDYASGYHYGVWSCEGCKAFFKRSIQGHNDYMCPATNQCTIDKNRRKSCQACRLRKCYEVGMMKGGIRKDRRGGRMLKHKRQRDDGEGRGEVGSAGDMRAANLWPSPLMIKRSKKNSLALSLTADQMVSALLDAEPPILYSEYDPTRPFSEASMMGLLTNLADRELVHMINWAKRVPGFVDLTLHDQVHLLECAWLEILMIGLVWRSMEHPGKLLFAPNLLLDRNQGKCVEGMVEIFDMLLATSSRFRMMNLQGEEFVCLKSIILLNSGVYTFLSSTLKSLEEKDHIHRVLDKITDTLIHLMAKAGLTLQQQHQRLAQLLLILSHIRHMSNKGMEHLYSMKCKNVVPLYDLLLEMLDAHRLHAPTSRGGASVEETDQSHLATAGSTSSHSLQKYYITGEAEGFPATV

B1: B18C4 (peptide)
chain: MKLLSSIEQACDICRLKKLKCSKEKPKCAKCLKNNWECRYSPKTKRSPLTRAHLTEVESRLERLEQLFLLIFPREDLDMILKMDSLQDIKALLTGLFVQDNVNKDAVTDRLASVETDMPLTLRQHRISATSSSEESSNKGQRQLTVSEFDSPWVWFGGEPGLNLLDLQPS
B2: M2H3 (peptide)
chain: MKLLSSIEQACDICRLKKLKCSKEKPKCAKCLKNNWECRYSPKTKRSPLTRAHLTEVESRLERLEQLFLLIFPREDLDMILKMDSLQDIKALLTGLFVQDNVNKDAVTDRLASVETDMPLTLRQHRISATSSSEESSNKGQRQLTVSEFRQSFVSEILGGGWLPLDLQPS
B3: B22F6 (peptide)
chain: MKLLSSIEQACDICRLKKLKCSKEKPKCAKCLKNNWECRYSPKTKRSPLTRAHLTEVESRLERLEQLFLLIFPREDLDMILKMDSLQDIKALLTGLFVQDNVNKDAVTDRLASVETDMPLTLRQHRISATSSSEESSNKGQRQLTVSEFLSGLEMEVVLWHYGRLDLQPS
B4: M4D1 (peptide)
chain: MKLLSSIEQACDICRLKKLKCSKEKPKCAKCLKNNWECRYSPKTKRSPLTRAHLTEVESRLERLEQLFLLIFPREDLDMILKMDSLQDIKALLTGLFVQDNVNKDAVTDRLASVETDMPLTLRQHRISATSSSEESSNKGQRQLTVSEFRFPFHEMVREWESMGLERVRYAEP
B5: M7B1 (peptide)
chain: MKLLSSIEQACDICRLKKLKCSKEKPKCAKCLKNNWECRYSPKTKRSPLTRAHLTEVESRLERLEQLFLLIFPREDLDMILKMDSLQDIKALLTGLFVQDNVNKDAVTDRLASVETDMPLTLRQHRISATSSSEESSNKGQRQLTVSEFVGWFTGMAACSYAPDLDLQPS
B6: B8A10 (peptide)
chain: MKLLSSIEQACDICRLKKLKCSKEKPKCAKCLKNNWECRYSPKTKRSPLTRAHLTEVESRLERLEQLFLLIFPREDLDMILKMDSLQDIKALLTGLFVQDNVNKDAVTDRLASVETDMPLTLRQHRISATSSSEESSNKGQRQLTVSEFVNWDAVVPWSELVALLDLQPS

How the values were obtained:
ER β [1] = molecular target: ER β (Homo sapiens, UniProt Q92731); assay: Phage ELISA fingerprint: binding of peptide phage to immobilized ER β in the presence of modulators (Table 14B)
ER β (Homo sapiens, UniProt Q92731), sequence (Q92731 whole entry, species assumed, the tested form may be a part): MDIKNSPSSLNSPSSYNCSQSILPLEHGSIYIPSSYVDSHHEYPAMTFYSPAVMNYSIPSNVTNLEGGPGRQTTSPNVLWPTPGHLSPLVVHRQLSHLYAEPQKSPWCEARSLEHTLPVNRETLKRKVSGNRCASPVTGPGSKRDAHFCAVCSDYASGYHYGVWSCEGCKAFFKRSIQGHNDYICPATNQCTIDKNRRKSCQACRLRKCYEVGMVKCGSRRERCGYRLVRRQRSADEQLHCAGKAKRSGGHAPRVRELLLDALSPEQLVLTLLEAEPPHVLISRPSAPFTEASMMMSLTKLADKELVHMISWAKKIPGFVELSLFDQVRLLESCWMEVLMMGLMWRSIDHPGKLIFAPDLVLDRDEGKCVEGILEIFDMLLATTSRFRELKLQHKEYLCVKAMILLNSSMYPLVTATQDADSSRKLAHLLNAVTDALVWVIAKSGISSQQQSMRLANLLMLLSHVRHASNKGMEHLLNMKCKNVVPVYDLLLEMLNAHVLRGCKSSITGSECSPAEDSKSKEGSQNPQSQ

[2] = molecular target: T1, Gal4 transcriptional activation domain …; assay: cell-based or functional assay
[3] = molecular target: T1, Gal4 transcriptional activation domain …; assay: cell-based or functional assay; remark: listed apart in the source
ER α [4] = molecular target: T2, ER α; assay: phage isolated on ERα-ERE; Tamoxifen
ER α [5] = molecular target: T2, ER α; assay: phage isolated on ERα on plastic; ICI 182,780
ER β [6] = molecular target: T3, ER β (UniProt Q92731 1-530, limits assumed); assay: peptide probe binding to ERβ, Clomiphene
T3 construct: In vitro; also called estrogen receptor β; ERβ-ERE
T3 sequence (Q92731 whole entry): as the sequence (Q92731 whole entry, species assumed, the tested form may be a part) above

ER β [7] = molecular target: T3, ER β; assay: peptide probe binding to ERβ, Estriol
ER β [8] = molecular target: T3, ER β; assay: peptide probe binding to ERβ, Raloxifene
ER β [9] = molecular target: T3, ER β; assay: phage ELISA, ICI 182,780 1 µM

Row | Molecule | Fold induction (yeast two-hybrid) [2] [fold] | β-galactosidase activity (yeast two-hybrid), CPA [3] | β-galactosidase activity (yeast two-hybrid), DHT [3] | β-galactosidase activity (yeast two-hybrid), No Lig [3] | β-galactosidase activity (yeast two-hybrid), RU [3] | further results
1 | SSNHQSSRLIELLSR [#4 ER./E2] | – | – | – | – | – | Class Specific Fingerprint on ERβ: phage binding, 4-OH Tamoxifen present (ER β [1]; 4-OH tamoxifen 1 μM): 0; Class Specific Fingerprint on ERβ: phage binding, ICI 182,780 present (ER β [1]; ICI 182,780 1 μM): 0; Class Specific Fingerprint on ERβ: phage binding, Clomiphene present (ER β [1]; clomiphene 10 μM): 0; Class Specific Fingerprint on ERβ: phage binding, Raloxifene present (ER β [1]; raloxifene 1 μM): 0
2 | SRLPPSVFSMCGSEVCLSR [9Tβ] | – | – | – | – | – | Class Specific Fingerprint on ERβ: phage binding, Nafoxidine present (ER β [1]; nafoxidine 10 μM): 5
3 | B1 | 1 | 1.53 | 1.43 | 1.12 | 1.5 | β-galactosidase activity (yeast two-hybrid), MPA [3]: 1.44; β-galactosidase activity (yeast two-hybrid), Test [3]: 0.969
4 | SRTLQLDWGTLYSR [T3-1] | – | – | – | – | – | binding result (ER α [4]): binds
5 | SSGKTREHYREGTSR [7PI] | – | – | – | – | – | binding result (ER α [5]): binds
6 | SRFEIWKPEPGCVSSLENWEPGKRVCSR [T2-10] | – | – | – | – | – | binding result (ER α [4]): binds
7 | B2 | 10 | 8.59 | 24.1 | 2.53 | 6.8 | β-galactosidase activity (yeast two-hybrid), MPA [3]: 19.2; β-galactosidase activity (yeast two-hybrid), Test [3]: 26.6
8 | SRVFGVSGGEVVLINGSSR [T3-11] | – | – | – | – | – | binding result (ER α [4]): binds
9 | B3 | 10 | 1.23 | 7.85 | 0.794 | 1.2 | β-galactosidase activity (yeast two-hybrid), MPA [3]: 4.56; β-galactosidase activity (yeast two-hybrid), Test [3]: 7.77
10 | B4 | > 2 | -0.0396 | 0.395 | 0 | 0.1 | β-galactosidase activity (yeast two-hybrid), MPA [3]: 1.7; β-galactosidase activity (yeast two-hybrid), Test [3]: 0.134
11 | SSRTAEDYCFFADDYWCSR (also called 16E) [3PI] | – | – | – | – | – | binding result (ER α [5]): binds
12 | SSEACVGRWMLCEQLGVSR (also called β III; B3) [12B-β] | – | – | – | – | – | Equiv. (ER β [6]): -61%; Equiv. (ER β [7]): 77%; Equiv. (ER β [8]): -71%
13 | B5 | > 2 | 1.69 | 3.93 | 0 | 0.1 | β-galactosidase activity (yeast two-hybrid), MPA [3]: 6.9; β-galactosidase activity (yeast two-hybrid), Test [3]: 4.5
14 | SSLDLSQFPMTASFLRESR (also called β II; B2) [35E-β] | – | – | – | – | – | phage ELISA grade (ER β [9]): 0
15 | SREWEDGFGGRWLSR (also called β I; B1) [4T-β] | – | – | – | – | – | phage ELISA grade (ER β [9]): 0; Equiv. (ER β [6]): -62%; Equiv. (ER β [8]): -53%
16 | SSDCESLTSYPHLKALCSR [5PI] | – | – | – | – | – | binding result (ER α [5]): binds
17 | B6 | 1 | 0.395 | 0.616 | 0.875 | 0.4 | –
18 | SSRALALFPVGMESR [4PI] | – | – | – | – | – | binding result (ER α [5]): binds
19 | SSTATALRDRLAYSR [6PI] | – | – | – | – | – | binding result (ER α [5]): binds
